Patent CN118290581A (ZHEJIANG ZHENGXI BIOTECHNOLOGY CO LTD, dated 2024)
Values belong to the binder of their own block, whether it stands above or below them.

How the values were obtained:
[1] = target: T1, 人CD138 (human, UniProt P18827 23-310); experiment: flow cytometry titration of antibody dilutions (from 1 mg/mL) on cultured activated human cells, goat anti-mouse IgG-PE detection
T1 construct: whole, on cells; also called syndecan-1; CD138靶抗原
T1 sequence (looked up): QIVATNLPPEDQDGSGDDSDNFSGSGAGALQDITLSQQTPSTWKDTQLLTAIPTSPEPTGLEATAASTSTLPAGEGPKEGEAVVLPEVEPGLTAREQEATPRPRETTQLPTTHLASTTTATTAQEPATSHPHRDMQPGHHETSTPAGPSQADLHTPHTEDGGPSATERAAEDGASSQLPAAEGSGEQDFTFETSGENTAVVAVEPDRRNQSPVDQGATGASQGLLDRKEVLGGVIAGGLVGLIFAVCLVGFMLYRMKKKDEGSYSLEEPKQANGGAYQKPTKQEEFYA

[2] = target: T1, 人CD138; experiment: flow cytometry, APC-labelled antibody on cultured activated cells

亲和力(kd) [1]: 25.2
B1: 鼠抗人CD138[ZXCloneHCD138-02]抗体 (antibody, mouse IgG1, kappa, V domains shown)
VH: QVQLQQPGSVLVRPGASVKLSCKTSGYTFTSSWMHWAKQRPGQGLEWIGEIHPNGGNTYYNEKFKGKATLSVDTSSSTAYVDLSSLTSEDSAVYFCATPHYWGQGTTLTVSS
VL: DVVMTQTPLSLPVSLGDQASISCRCRQSLVHSNGNTYLQWYLQKPGQSPILLIYRVSNRFSGVPDRFSGSGSGTDFTLKISRVEAEDLGVYFCSQSTHVPHTFGAGTKLELKR

binding result [2]: binds
B2: 自制鼠抗人CD138[ZXCloneHCD138-02]-APC (antibody, mouse IgG1, kappa, V domains shown)
VH: B1 VH
VL: B1 VL
modifications: APC-labelled (site and chain not stated)
